Values joined by “and” are separate entries in the source; they are usually repeats but may differ in a detail not shown here. Equal entries are not always repeated.
Target: T1, Myc-ArPIKfyve^WT (human), Q08AM6
T1 chain: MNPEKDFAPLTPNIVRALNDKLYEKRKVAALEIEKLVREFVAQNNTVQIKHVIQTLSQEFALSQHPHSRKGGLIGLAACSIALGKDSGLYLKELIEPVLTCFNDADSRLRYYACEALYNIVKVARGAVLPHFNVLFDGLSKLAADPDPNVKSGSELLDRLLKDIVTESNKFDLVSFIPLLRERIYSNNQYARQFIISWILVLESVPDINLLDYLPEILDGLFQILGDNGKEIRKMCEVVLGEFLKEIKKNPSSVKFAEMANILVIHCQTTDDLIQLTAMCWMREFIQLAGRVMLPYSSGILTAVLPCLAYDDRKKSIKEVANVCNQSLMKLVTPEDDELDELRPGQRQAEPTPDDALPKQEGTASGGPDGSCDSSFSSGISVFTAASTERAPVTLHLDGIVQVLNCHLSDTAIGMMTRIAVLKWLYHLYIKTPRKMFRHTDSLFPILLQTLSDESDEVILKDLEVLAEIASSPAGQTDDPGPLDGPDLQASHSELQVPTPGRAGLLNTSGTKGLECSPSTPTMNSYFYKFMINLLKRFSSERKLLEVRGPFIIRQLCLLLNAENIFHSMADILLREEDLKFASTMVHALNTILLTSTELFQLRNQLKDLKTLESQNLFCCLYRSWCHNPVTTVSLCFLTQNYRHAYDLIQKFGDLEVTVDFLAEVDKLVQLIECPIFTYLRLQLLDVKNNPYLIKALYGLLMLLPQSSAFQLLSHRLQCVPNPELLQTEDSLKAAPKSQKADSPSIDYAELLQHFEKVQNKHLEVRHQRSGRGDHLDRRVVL
Experiment: cross-linking
Details: remark: other sources report otherwise

stoichiometry N: 2 and 3
B1: Myc-ArPIKfyve^WT, Q08AM6 1-782 (natural protein)
chain: T1 chain
